Reference: paper PMC4702122, “Embelin binds to human neuroserpin and impairs its polymerisation” (Scientific Reports, 2016)
“And” between values parts separate entries of the source, which are not always exact repeats. Identical values can stand only once.

How the values were obtained:
[1] = target: T1, 2ctPA (active form of recombinant tPA) (Homo sapiens, UniProt P00750); assay: tPA hydrolytic activity assay; format: biochemical; details: direct inhibition stated, data not shown; conditions not given
T1 construct: gene PLAT

[2] = target: Neuroserpin (SERPINI1), wild type, uncleaved (human) (UniProt Q99574); assay: native MS; nano-ESI-MS of the SEC peak at 12.5 ml of Nat incubated overnight at 20 °C with EMB; 100 mM ammonium acetate pH 8, 10-20 μM protein, declustering potential 300 V
[3] = target: Neuroserpin (SERPINI1), wild type, uncleaved (human) (UniProt Q99574); assay: SEC-MALS; Nat incubated with EMB; peaks eluted at 13.7 and 12.5 ml; SEC-HPLC, 200 μL at 4 mg/mL
[4] = target: Neuroserpin (SERPINI1), wild type, uncleaved (human) (UniProt Q99574); assay: SEC; Nat (4 mg/ml) with 1.5 mM (saturated) EMB overnight at 4, 20, 37, 45, 55 °C; Superdex200 10/300 GL, 10 mM Tris HCl, 50 mM KCl, pH 8.0; fractions also by SDS-PAGE

T1 sequence (P00750 36-562): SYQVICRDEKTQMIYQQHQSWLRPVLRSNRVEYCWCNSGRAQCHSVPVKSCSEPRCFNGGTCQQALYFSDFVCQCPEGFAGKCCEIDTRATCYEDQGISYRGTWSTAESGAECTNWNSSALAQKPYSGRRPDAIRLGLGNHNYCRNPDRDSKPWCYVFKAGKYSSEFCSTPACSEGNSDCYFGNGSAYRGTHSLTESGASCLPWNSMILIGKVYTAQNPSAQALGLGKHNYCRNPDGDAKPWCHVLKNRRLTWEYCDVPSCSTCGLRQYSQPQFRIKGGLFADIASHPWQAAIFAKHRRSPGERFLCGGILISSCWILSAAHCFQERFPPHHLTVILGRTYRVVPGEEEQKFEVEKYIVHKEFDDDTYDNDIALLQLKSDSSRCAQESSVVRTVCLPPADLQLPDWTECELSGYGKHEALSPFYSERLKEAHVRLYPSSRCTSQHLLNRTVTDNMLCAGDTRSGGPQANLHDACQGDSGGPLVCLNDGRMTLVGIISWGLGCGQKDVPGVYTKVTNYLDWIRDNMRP

| stoichiometry N [2] | stoichiometry N [3] | stoichiometry N [4] | Molecule | tPA hydrolytic activity assay [1] |
| --- | --- | --- | --- | --- |
|  |  |  | CCCCCCCCCCCC1=C(O)C(=O)C=C(O)C1=O [EMB, embelin] | Due to direct inhibitory effect of EMB on tPA |
| 3 and 4 and 2 | 2 | 2 to 8 | Neuroserpin (SERPINI1), wild type, uncleaved (from UniProt Q99574 17-410) (natural protein) |  |
